Results as given in patent US20220306751A1 (MYTHIC THERAPEUTICS, published 2022).
Where a chain is given by its changes, count along the chain named.

T1: CD123 Protein, His Tag, Acro Biosciences Cat. No. ILA-H52H6 (Homo sapiens (Human), UniProt P26951 19-305)
T1 construct: Bought protein; not shown: His tag
T1 sequence: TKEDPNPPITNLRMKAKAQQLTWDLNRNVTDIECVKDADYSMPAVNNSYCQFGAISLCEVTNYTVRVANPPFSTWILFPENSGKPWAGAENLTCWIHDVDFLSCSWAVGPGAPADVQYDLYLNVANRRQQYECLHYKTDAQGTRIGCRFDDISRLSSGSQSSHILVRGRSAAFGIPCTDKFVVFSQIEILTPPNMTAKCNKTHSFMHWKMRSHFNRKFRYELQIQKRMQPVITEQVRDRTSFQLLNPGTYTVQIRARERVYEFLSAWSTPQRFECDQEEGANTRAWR

B1: MYT2757 (antibody, V domains shown)
VH: QVQLVQSGAEVKKPGASVKVSCKASGYIFTSSIMAWVRQAPGQGLEWIGYIKPYNDGTKYNEKFKGRATLTSDRSTSTAYMELSSLRSEDTAVYYCAREGGNDYHDTMDYWGQGTLVTVSS
VL: DIQMTQSPSSLSASVGDRVTITCRASQDINSYLSWFQQKPGKAPKTLIYRVNRLVDGVPSRFSGSGSGNDYTLTISSLQPEDFATYYCLQYDAFPYTFGQGTKVEIK
notes: IgG
B2: MYT2781 (antibody, V domains shown)
VH: B1 VH with A35H, H105Y
VL: B1 VL with Y32H
notes: IgG
B3: MYT2777 (antibody, V domains shown)
VH: B1 VH with A35H, H105Y
VL: B1 VL with D28H
notes: IgG
B4: MYT2760 (antibody, V domains shown)
VH: B1 VH with A35H, T107H
VL: B1 VL
notes: IgG
B5: MYT2775 (antibody, V domains shown)
VH: B1 VH with A35H, H105Y
VL: B1 VL with S26H
notes: IgG
B6: MYT2783 (antibody, V domains shown)
VH: B1 VH with A35H, H105Y
VL: B1 VL with S34H
notes: IgG
B7: MYT2761 (antibody, V domains shown)
VH: B1 VH with A35H, D109H
VL: B1 VL
notes: IgG
B8: MYT2763 (antibody, V domains shown)
VH: B1 VH with Y27H
VL: B1 VL
notes: IgG
B9: MYT2762 (antibody, V domains shown)
VH: B1 VH with A35H, H105Y, T107H, D109H
VL: B1 VL
notes: IgG
B10: MYT2778 (antibody, V domains shown)
VH: B1 VH with A35H, H105Y
VL: B1 VL with I29H
notes: IgG
B11: MYT2774 (antibody, V domains shown)
VH: B1 VH with A35H, H105Y
VL: B1 VL with A25H
notes: IgG
B12: MYT2759 (antibody, V domains shown)
VH: B1 VH with H105Y, D109H
VL: B1 VL
notes: IgG
B13: MYT2773 (antibody, V domains shown)
VH: B1 VH with A35H, H105Y
VL: B1 VL with R24H
notes: IgG
B14: MYT2779 (antibody, V domains shown)
VH: B1 VH with A35H, H105Y
VL: B1 VL with N30H
notes: IgG
B15: MYT2780 (antibody, V domains shown)
VH: B1 VH with A35H, H105Y
VL: B1 VL with S31H
notes: IgG
B16: MYT2782 (antibody, V domains shown)
VH: B1 VH with A35H, H105Y
VL: B1 VL with L33H
notes: IgG
B17: MYT2776 (antibody, V domains shown)
VH: B1 VH with A35H, H105Y
VL: B1 VL with Q27H
notes: IgG
B18: MYT2764 (antibody, V domains shown)
VH: B1 VH with Y27H, H105Y, T107H
VL: B1 VL
notes: IgG

These binders were tested against T1, CD123 Protein, His Tag, Acro … (assay: BLI, IgG on anti-human Fc sensor, 50 nM CD123, pH 7.4 and pH 5.4).
How it was run: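 Single His/Ala heavy-chain CDR variants were expressed in Expi293 and captured from diluted supernatant on anti-human Fc sensors. By BLI, association with 50 nM His-tagged CD123 ran for 120 s and dissociation for 300–600 s, all in PBST pH 7.4. The full cycle was repeated separately in PBST pH 5.4.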

binding result	Binder
binds	B1
binds	B2
binds	B3
binds	B4
binds	B5
binds	B6
binds	B7
binds	B8
binds	B9
binds	B10
binds	B11
binds	B12
binds	B13
binds	B14
binds	B15
binds	B16
binds	B17
binds	B18
